Test results from patent US9206411B2, “Staphylococcal Phage2638A endolysin amidase domain is lytic for Staphylococcus aureus” (priority 2012, dated 2015).

Columns and labels:
Experiment in all cases: Plate lysis, susceptibility of strains to 2638A (Table 1)
Assay type in all cases: cell-based
S. aureus ANG 144 = test system: S. aureus ANG 144
Procedure: (§1) Purified proteins for each construct were diluted in sterile nickel column elution buffer, and 6 μL of lysostaphin (11 μg) or the constructs (0.2 nmoles or ˜11 μg for the repaired construct 2638A 1-180Mut-486) was spotted onto a freshly spread lawn of S. aureus strain NRS119 (SA LinR #12; linezolid resistant) growing cells that had air dried for 30 min on tryptic soy agar (TSA) plates. L=[…] Lysostaphin (Sigma); Spot 1=11 μg; all other constructs are 0.2 nmoles (˜11 μg for the repaired construct 2638A 1-180Mut-486) […]. The spotted plates were air dried for 10 min in a laminar flow hood and incubated overnight in a 37° C. environment. Scoring of the cleared spots occurred within 20 h of plating the cells.
(§2) The Plate Lysis assay results (FIG. 3) agree with the turbidity reduction assay. Each of the M23 peptidase dependent or SH3b-truncating constructs showing weak activity on S. aureus strain Newman strain. In addition to the Plate Lysis results in FIG. 3, we have also examined numerous strains with reduced but real lytic activity (Table 1). However, the plate lysis results with the 2638A endolysin constructs are extremely novel in appearance. Plate lysis results are routinely visualized as a discrete cleared spot on a lawn of bacteria after a single overnight of culture. […] In contrast, the 2638A endolysin is unique in that sometimes this cleared zone requires multiple days to appear. […] Thus, there is also a likelihood that the enzyme might work preferentially on late log or stationary phase cells in the plate lysis assay, as the 3 day old culture is likely not growing as quickly as the freshly-plated overnight culture.

S. aureus Newman ΔdltA = test system: S. aureus Newman ΔdltA
Procedure: as §1, §2

S. aureus Newman ΔtagO = test system: S. aureus Newman ΔtagO
Procedure: as §1, §2

S. aureus Reynolds (CP5) = test system: S. aureus Reynolds (CP5)
Procedure: as §1, §2

S. aureus SA113 = test system: S. aureus SA113
Procedure: as §1, §2

S. aureus Tanji 19 = test system: S. aureus Tanji 19
Procedure: as §1, §2

S. aureus Tanji 2 = test system: S. aureus Tanji 2
Procedure: as §1, §2

S. aureus Tanji 31 = test system: S. aureus Tanji 31
Procedure: as §1, §2

S. epidermidis = test system: S. epidermidis
Procedure: as §1, §2

S. aureus MN8 ΔsarA = test system: S. aureus MN8 ΔsarA; set-up: key to Susceptibility to lysis by 2638A, day 1: − = >100 pmol; (+) = very faint lysis zone; + = 100 pmol; ++ = 10 pmol; +++ = 1 pmol
Procedure: as §1, §2

S. aureus NRS 383 (MRSA) = test system: S. aureus NRS 383 (MRSA); set-up: key to Susceptibility to lysis by 2638A, day 1: − = >100 pmol; (+) = very faint lysis zone; + = 100 pmol; ++ = 10 pmol; +++ = 1 pmol
Procedure: as §1, §2

S. aureus NRS 384 (MRSA) = test system: S. aureus NRS 384 (MRSA); set-up: key to Susceptibility to lysis by 2638A, day 3+: − = >100 pmol; (+) = very faint lysis zone; + = 100 pmol; ++ = 10 pmol; +++ = 1 pmol
Procedure: as §1, §2

S. aureus Tanji 21 = test system: S. aureus Tanji 21; set-up: key to Susceptibility to lysis by 2638A, day 3+: − = >100 pmol; (+) = very faint lysis zone; + = 100 pmol; ++ = 10 pmol; +++ = 1 pmol
Procedure: as §1, §2

S. aureus Tanji 47 = test system: S. aureus Tanji 47; set-up: key to Susceptibility to lysis by 2638A, day 3+: − = >100 pmol; (+) = very faint lysis zone; + = 100 pmol; ++ = 10 pmol; +++ = 1 pmol
Procedure: as §1, §2

S. simulans = test system: S. simulans; set-up: key to Susceptibility to lysis by 2638A, day 3+: − = >100 pmol; (+) = very faint lysis zone; + = 100 pmol; ++ = 10 pmol; +++ = 1 pmol
Procedure: as §1, §2

B1: 2638A Endolysin: 486 amino acid staphylococcal phage 2638A endolysin (SEQ ID NO:4), C-terminally 6×His-tagged; M23 peptidase, amidase, SH3b domains (protein)
chain: MLTAIDYLTKKGWKISSDPRTYDGYPKNYGYRNYHENGINYDEFCGGYHRAFDVYSNETNDVPAVTSGTVIEANDYGNFGGTFVIRDANDNDWIYGHLQRGSMRFVVGDKVNQGDIIGLQGNSNYYDNPMSVHLHLQLRPKDAKKDEKSQVCSGLAMEKYDITNLNAKQDKSKNGSVKELKHIYSNHIKGNKITAPKPSIQGVVIHNDYGSMTPSQYLPWLYARENNGTHVNGWASVYANRNEVLWYHPTDYVEWHCGNQWANANLIGFEVCESYPGRISDKLFLENEEATLKVAADVMKSYGLPVNRNTVRLHNEFFGTSCPHRSWDLHVGKGEPYTTTNINKMKDYFIKRIKHYYDGGKLEVSKAATIKQSDVKQEVKKQEAKQIVKATDWKQNKDGIWYKAEHASFTVTAPEGIITRYKGPWTGHPQAGVLQKGQTIKYDEVQKFDGHVWVSWETFEGETVYMPVRTWDAKTGKVGKLWGEIKLEHHHHHH
modifications: C-terminal His6 tag; Mutated Phage 2638a
notes: M23 peptidase, amidase, SH3b domains
S. aureus ANG 144; day 1
  Susceptibility to lysis by 2638A, day 1: − (− = >100 pmol)
S. aureus ANG 144; day 3+
  Susceptibility to lysis by 2638A, day 3+: − (− = >100 pmol)
S. aureus Newman ΔdltA; day 1
  Susceptibility to lysis by 2638A, day 1: − (− = >100 pmol)
S. aureus Newman ΔdltA; day 3+
  Susceptibility to lysis by 2638A, day 3+: − (− = >100 pmol)
S. aureus Newman ΔtagO; day 1
  Susceptibility to lysis by 2638A, day 1: +++ (+++ = 1 pmol)
S. aureus Newman ΔtagO; day 3+
  Susceptibility to lysis by 2638A, day 3+: +++ (+++ = 1 pmol)
S. aureus Reynolds (CP5); day 1
  Susceptibility to lysis by 2638A, day 1: − (− = >100 pmol)
S. aureus Reynolds (CP5); day 3+
  Susceptibility to lysis by 2638A, day 3+: − (− = >100 pmol)
S. aureus SA113; day 1
  Susceptibility to lysis by 2638A, day 1: + (+ = 100 pmol)
S. aureus SA113; day 3+
  Susceptibility to lysis by 2638A, day 3+: ++ (++ = 10 pmol)
S. aureus Tanji 19; day 1
  Susceptibility to lysis by 2638A, day 1: − (− = >100 pmol)
S. aureus Tanji 19; day 3+
  Susceptibility to lysis by 2638A, day 3+: + (+ = 100 pmol)
S. aureus Tanji 2; day 1
  Susceptibility to lysis by 2638A, day 1: − (− = >100 pmol)
S. aureus Tanji 2; day 3+
  Susceptibility to lysis by 2638A, day 3+: + (+ = 100 pmol)
S. aureus Tanji 31; day 1
  Susceptibility to lysis by 2638A, day 1: − (− = >100 pmol)
S. aureus Tanji 31; day 3+
  Susceptibility to lysis by 2638A, day 3+: − (− = >100 pmol)
S. epidermidis; day 1
  Susceptibility to lysis by 2638A, day 1: − (− = >100 pmol)
S. epidermidis; day 3+
  Susceptibility to lysis by 2638A, day 3+: + (+ = 100 pmol)
S. aureus MN8 ΔsarA; day 1
  Susceptibility to lysis by 2638A, day 1: (+)
S. aureus MN8 ΔsarA; day 3+
  Susceptibility to lysis by 2638A, day 3+: +++ (+++ = 1 pmol)
S. aureus NRS 383 (MRSA); day 1
  Susceptibility to lysis by 2638A, day 1: (+)
S. aureus NRS 383 (MRSA); day 3+
  Susceptibility to lysis by 2638A, day 3+: ++ (++ = 10 pmol)
S. aureus NRS 384 (MRSA); day 1
  Susceptibility to lysis by 2638A, day 1: − (− = >100 pmol)
S. aureus NRS 384 (MRSA); day 3+
  Susceptibility to lysis by 2638A, day 3+: (+)
S. aureus Tanji 21; day 1
  Susceptibility to lysis by 2638A, day 1: − (− = >100 pmol)
S. aureus Tanji 21; day 3+
  Susceptibility to lysis by 2638A, day 3+: (+)
S. aureus Tanji 47; day 1
  Susceptibility to lysis by 2638A, day 1: − (− = >100 pmol)
S. aureus Tanji 47; day 3+
  Susceptibility to lysis by 2638A, day 3+: (+)
S. simulans; day 1
  Susceptibility to lysis by 2638A, day 1: − (− = >100 pmol)
S. simulans; day 3+
  Susceptibility to lysis by 2638A, day 3+: (+)
